Experimental data taken from patent US20250376519A1 (JIANGSU HENGRUI PHARMACEUTICALS, published 2025).

B1: hu110-S107E-hot Ig (bispecific antibody)
light 1: NIVMTQSPKSLAVSLGERATINCKASENVGIFVSWYQQKPGQSPKLLIYGASNRYTGVPDRFSGSGSATDFTLTISSLQAEDVADYYCGQSHSYPLTFGQGTKLEIKGGGGSSGAPRFLTRPKASVVSVGKDATLSCQIVGNPFPQVSWEKDKQPVTAGVRFRLAQDGDLYRLKILDLQLSDSGQYVCRARNAHGEAFACLGLQVDAEA
heavy 1: EVQLVQSGAEVKKPGASVKVSCKTSGYTFTDYYMNWVRQAPGQSLEWMGIINPYQGGTSYTQKFKGRVTITVDKSASTAYMELSSLRSEDTAVYYCARHFYDSSYLTYSTMDYWGQGTTVTVSSGGGGSGIPPKIECLPIDISIDEGKVLTVASAFTGEPTPEVTWSTGGRKIHSQEQGRFHIENTDDSTTLTIKDVQKQDGGLYTLTLRNEFGSDSATVNIHIRSIDKTHTCPPCPAPEAAGGPSVFLFPPKPKDTLMISRTPEVTCVVVDVSHEDPEVKFNWYVDGVEVHNAKTKPREEQYNSTYRVVSVLTVLHQDWLNGKEYKCKVSNKALPAPIEKTISKAKGQPREPQVCTLPPSREEMTKNQVSLSCAVKGFYPSDIAVEWESNGQPENNYKTTPPVLDSDGSFFLVSKLTVDKSRWQQGNVFSCSVMHEALHNHYTQKSLSLSPGK
heavy 2: not shown
light 2: not shown
notes: Format 1 (Hot-Ig, Titin/Obscurin-replaced DLL3 Fab), DLL3 x CD3
B2: hu110-I2C-hot Ig (bispecific antibody)
light 1: B1 light 1
heavy 1: B1 heavy 1
heavy 2: not shown
light 2: not shown
notes: as for B1
B3: hu110-I2C-Y body (bispecific antibody)
light: NIVMTQSPKSLAVSLGERATINCKASENVGIFVSWYQQKPGQSPKLLIYGASNRYTGVPDRFSGSGSATDFTLTISSLQAEDVADYYCGQSHSYPLTFGQGTKLEIKRTVAAPSVFIFPPSDEQLKSGTASVVCLLNNFYPREAKVQWKVDNALQSGNSQESVTEQDSKDSTYSLSSTLTLSKADYEKHKVYACEVTHQGLSSPVTKSFNRGEC
heavy: EVQLVQSGAEVKKPGASVKVSCKTSGYTFTDYYMNWVRQAPGQSLEWMGIINPYQGGTSYTQKFKGRVTITVDKSASTAYMELSSLRSEDTAVYYCARHFYDSSYLTYSTMDYWGQGTTVTVSSASTKGPSVFPLAPSSKSTSGGTAALGCLVKDYFPEPVTVSWNSGALTSGVHTFPAVLQSSGLYSLSSVVTVPSSSLGTQTYICNVNHKPSNTKVDKKVEPKSCDKTHTCPPCPAPEAAGGPSVFLFPPKPKDTLMISRTPEVTCVVVDVSHEDPEVKFNWYVDGVEVHNAKTKPREEQYNSTYRVVSVLTVLHQDWLNGKEYKCKVSNKALPAPIEKTISKAKGQPREPQVCTLPPSREEMTKNQVSLSCAVKGFYPSDIAVEWESNGQPENNYKTTPPVLDSDGSFFLVSKLTVDKSRWQQGNVFSCSVMHEALHNHYTQKSLSLSPGK
chain: not shown
notes: Format 2 (Y body: DLL3 Fab-Fc hole + CD3 scFv-Fc knob)

Experiments:
[1] = target: T1, human DLL3 on cells (human, UniProt Q9NYJ7 27-618); assay: cell-based or functional assay
T1 sequence: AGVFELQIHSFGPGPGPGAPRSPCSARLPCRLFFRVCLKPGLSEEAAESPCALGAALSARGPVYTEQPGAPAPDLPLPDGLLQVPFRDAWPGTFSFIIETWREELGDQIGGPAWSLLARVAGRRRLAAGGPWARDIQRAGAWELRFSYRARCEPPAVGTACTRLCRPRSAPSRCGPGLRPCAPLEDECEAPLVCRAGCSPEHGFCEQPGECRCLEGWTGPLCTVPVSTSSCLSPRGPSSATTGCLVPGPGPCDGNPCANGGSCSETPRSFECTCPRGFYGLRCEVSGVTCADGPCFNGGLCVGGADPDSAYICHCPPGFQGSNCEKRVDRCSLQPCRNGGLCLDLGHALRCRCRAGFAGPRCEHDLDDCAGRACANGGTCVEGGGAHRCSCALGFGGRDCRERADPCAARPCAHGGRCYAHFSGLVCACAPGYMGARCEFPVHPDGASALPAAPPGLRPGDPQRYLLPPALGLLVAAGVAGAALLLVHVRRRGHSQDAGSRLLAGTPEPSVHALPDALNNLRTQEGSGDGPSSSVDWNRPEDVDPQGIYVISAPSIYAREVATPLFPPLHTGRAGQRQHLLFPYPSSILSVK

[2] = target: T2, CD3 on Jurkat cells (human); assay: flow cytometry, Jurkat cells
T2 construct: whole, on cells; also called CD3-expressing Jurkat cells
T2 sequence (P07766 23-207, chain 1 of 4): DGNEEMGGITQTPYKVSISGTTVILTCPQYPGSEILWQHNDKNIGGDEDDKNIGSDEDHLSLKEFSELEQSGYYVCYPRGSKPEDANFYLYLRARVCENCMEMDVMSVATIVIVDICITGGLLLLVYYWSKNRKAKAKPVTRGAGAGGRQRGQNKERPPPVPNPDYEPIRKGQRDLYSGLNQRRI
T2 sequence (P09693 23-182, chain 2 of 4, further chain): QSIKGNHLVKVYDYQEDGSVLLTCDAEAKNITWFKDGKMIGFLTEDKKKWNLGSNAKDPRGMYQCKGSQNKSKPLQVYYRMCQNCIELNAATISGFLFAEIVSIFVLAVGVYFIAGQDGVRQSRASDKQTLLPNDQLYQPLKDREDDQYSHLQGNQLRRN
T2 sequence (P04234 22-171, chain 3 of 4, further chain): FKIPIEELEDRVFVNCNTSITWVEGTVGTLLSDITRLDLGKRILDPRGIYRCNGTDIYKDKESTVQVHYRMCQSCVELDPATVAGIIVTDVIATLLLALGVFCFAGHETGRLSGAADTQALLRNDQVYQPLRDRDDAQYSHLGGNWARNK
T2 sequence (P20963 22-164, chain 4 of 4, further chain): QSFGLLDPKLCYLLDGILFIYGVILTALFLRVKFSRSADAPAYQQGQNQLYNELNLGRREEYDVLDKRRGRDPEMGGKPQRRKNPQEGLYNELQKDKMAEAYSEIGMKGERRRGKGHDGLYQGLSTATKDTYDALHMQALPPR

[3] = target: T1, human DLL3 on cells; assay: cell-based or functional assay; remark: listed apart in the source
[4] = target: T3, human CD3D&3E (ACRO, CDD-H52W1) (human, UniProt P04234 22-105; P07766 23-126); assay: SPR Biacore 8K, Ab captured on Protein A
T3 construct: bought CD3 delta/epsilon protein
T3 sequence (P04234 22-105, chain 1 of 2): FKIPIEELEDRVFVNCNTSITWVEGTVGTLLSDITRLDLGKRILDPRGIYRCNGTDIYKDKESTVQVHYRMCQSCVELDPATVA
T3 sequence (P07766 23-126, chain 2 of 2): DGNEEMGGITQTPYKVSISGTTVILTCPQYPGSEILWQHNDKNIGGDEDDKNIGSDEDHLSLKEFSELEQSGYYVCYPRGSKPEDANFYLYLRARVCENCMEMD
Procedure, shortened: (§1)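 Antibodies captured on a Protein A chip for 18 s; DLL3 or CD3D&3E antigen flowed 180 s, then 600 s dissociation, with real-time detection. Regeneration used 10 mM glycine-HCl pH 1.5 between cycles. Kinetics were obtained by 1:1 model fitting.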

[5] = target: T4, human DLL3 (ACRO, DLL3-H52H4) (human, UniProt Q9NYJ7 27-492); assay: SPR Biacore 8K, Ab captured on Protein A
T4 construct: Bought
T4 sequence: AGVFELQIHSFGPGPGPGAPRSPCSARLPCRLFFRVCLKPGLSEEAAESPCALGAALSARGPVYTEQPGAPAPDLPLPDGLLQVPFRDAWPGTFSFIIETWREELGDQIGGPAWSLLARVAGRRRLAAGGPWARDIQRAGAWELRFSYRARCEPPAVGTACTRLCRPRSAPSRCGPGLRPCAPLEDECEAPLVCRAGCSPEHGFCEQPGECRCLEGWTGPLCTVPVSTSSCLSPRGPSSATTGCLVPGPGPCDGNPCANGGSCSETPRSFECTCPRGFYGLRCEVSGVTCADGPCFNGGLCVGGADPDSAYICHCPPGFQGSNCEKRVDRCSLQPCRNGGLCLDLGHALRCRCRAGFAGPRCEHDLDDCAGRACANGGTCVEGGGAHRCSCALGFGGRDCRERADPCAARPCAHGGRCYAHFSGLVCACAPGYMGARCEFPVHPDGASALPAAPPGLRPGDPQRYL
Procedure, shortened: as §1

[6] = target: T1, human DLL3 on cells; assay: cell-based or functional assay; remark: listed apart in the source

| Binder | IC50, PBMC killing of H1184/lucG cells [1] | Imax (%), PBMC killing of H1184/lucG cells [1] | EC50 [2] | EC50, Jurkat Lucia NFAT reporter with H82/DLL3 cells [3] | Fold changes in activation, Jurkat Lucia NFAT reporter with H82/DLL3 cells [3] | Kd [4] | koff [4] | kon [4] | Kd [5] | koff [5] | kon [5] | IC50, PBMC killing of SHP77/lucG cells [6] | Imax (%), PBMC killing of SHP77/lucG cells [6] |
| --- | --- | --- | --- | --- | --- | --- | --- | --- | --- | --- | --- | --- | --- |
| B1 | 0.0295 nM | 92% | 7.74 nM | 0.0177 nM | 18 fold | 46.7 nM | 0.00749 s⁻¹ | 160000 M⁻¹ s⁻¹ | 0.113 nM | 2.82e-05 s⁻¹ | 249000 M⁻¹ s⁻¹ | – | – |
| B2 | – | – | 3.27 nM | – | – | – | – | – | 0.119 nM | – | – | 0.0222 nM | 96% |
| B3 | 0.00642 nM | 98% | 3.83 nM | 0.00636 nM | – | – | – | – | 0.125 nM | – | – | 0.0338 nM | 100% |
